Results taken from patent US20180094062A1 (Hoffmann-La Roche, published 2018).

Tests used:
[1] = target: T1, human recombinant HER3 Extracellular Domain (HER3 ECD) (human, UniProt P21860 20-643); assay: SPR Biacore T100, antibody captured, 25 C
T1 construct: 68 kDa; also called human-Her3-ECD

[2] = target: T2, human Heregulin fragment (HRG) (human); assay: SPR Biacore T100, antibody captured, 25 C
T2 construct: a 44 kDa homodimeric protein, expressed in FreeStyle 293-F cells; also called Heregulin beta (HRG)
T2 chain: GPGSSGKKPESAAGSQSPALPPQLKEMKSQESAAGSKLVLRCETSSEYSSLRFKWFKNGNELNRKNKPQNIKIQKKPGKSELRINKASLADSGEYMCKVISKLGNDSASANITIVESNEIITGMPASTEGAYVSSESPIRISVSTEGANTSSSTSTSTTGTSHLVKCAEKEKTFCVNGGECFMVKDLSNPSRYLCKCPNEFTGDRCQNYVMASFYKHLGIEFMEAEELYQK

[3] = target: T3, HER4 ECD-HRG complex (Heregulin-complexed Her-4 ECD) (human, UniProt Q15303 26-651); assay: SPR Biacore T100, antibody captured, 25 C
T3 construct: Her-4 ECD incubated with a 5-fold molar excess of Heregulin
T3 sequence 1: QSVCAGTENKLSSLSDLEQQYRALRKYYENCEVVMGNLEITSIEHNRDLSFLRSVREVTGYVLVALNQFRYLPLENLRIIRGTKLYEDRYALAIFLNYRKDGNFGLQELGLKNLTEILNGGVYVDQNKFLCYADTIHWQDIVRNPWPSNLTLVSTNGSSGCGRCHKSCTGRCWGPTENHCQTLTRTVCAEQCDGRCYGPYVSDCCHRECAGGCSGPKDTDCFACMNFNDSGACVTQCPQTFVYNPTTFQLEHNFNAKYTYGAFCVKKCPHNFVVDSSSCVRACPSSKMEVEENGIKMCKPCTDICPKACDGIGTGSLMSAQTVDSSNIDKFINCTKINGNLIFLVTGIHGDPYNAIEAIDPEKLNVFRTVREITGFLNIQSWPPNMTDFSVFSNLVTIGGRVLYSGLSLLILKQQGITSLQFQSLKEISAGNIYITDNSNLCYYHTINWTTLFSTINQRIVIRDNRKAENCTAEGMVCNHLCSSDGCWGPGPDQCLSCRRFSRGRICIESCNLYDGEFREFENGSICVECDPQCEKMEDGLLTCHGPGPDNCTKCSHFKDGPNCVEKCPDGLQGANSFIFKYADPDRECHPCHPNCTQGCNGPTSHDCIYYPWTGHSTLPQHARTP
T3 sequence 2: T2 chain

[4] = target: T4, recombinant Thermus thermophilus SlyD FKBP-Her3 (TtSlyD-FKBP-Her3); assay: SPR Biacore T100, antibody captured, 25 C
T4 construct: expressed in E. coli, the N-terminal methionine can be present or not; also called thermo SlyD-Her3; T.T.SlyD-Her3
T4 chain: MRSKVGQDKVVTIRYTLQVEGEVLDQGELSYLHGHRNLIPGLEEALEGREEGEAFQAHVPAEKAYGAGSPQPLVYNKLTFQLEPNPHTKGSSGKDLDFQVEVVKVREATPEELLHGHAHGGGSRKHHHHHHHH

TtSlyD-Wildtype = target: T5, TtSlyD-Wildtype; assay: SPR Biacore T100, antibody captured, 25 C
T5 construct: scaffold without insert; N-terminal methionine can be present or not; also called T.T.SlyD-wt; wild type Thermus thermophilus SlyD protein
T5 chain: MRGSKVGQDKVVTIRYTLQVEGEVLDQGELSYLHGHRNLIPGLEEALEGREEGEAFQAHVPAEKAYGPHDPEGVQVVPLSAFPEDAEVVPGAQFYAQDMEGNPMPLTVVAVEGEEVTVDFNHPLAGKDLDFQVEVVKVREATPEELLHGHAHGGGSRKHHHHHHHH

[5] = target: T6, HER4 ECD peptide hairpin (β-hairpin of HER4), overlapping immobilized 15-mer peptides (human); assay: CelluSpots array of overlapping 15-mer peptides of the HER family hairpins, chemiluminescence
T6 construct: CelluSpots library of 15-mers as for HER3; cysteines replaced by serines; also called HER4 β-hairpin
T6 peptide: PQTFVYNPTTFQLEHNFNA

[6] = target: T7, HER3 ECD-HRG complex (Heregulin-activated Her-3 ECD) (human, UniProt P21860 20-643); assay: SPR Biacore 3000, antibody captured, Biacore two-state model, kd1, 25 C; kd1, first step of the two-state fit; not the kd2 used for KDapp
T7 construct: receptor-ligand complex made by preincubating HER3 ECD with a five-fold molar excess of Heregulin; also called Heregulin/Her-3 ECD; Heregulin-complexed Her-3 ECD
Experimental: (§1) A CM5 series sensor was mounted into the system and was normalized in HBS-ET buffer (10 mM HEPES pH 7.4, 150 mM NaCl, 3 mM EDTA, 0.005% w/v Tween 20) according to the manufacturer's instructions. The sample buffer was the system buffer supplemented with 1 mg/ml CMD (Carboxymethyldextran). The system operated at 25° C. 10000 RU RAM-Fey (relative units of Fey-fragment Rabbit Anti-Mouse IgG/Jackson Laboratories) were immobilized according to the manufacturer's instructions using EDC/NHS chemistry on all flow cells. The sensor was deactivated using 1M ethanolamine.

[7] = target: T7, HER3 ECD-HRG complex …; assay: SPR Biacore 3000, antibody captured, Biacore two-state model, apparent KD from ka1 and kd2, 25 C; apparent KD of the two-state model, kd2 / ka1
Experimental: as §1

MR (Molar Ratio) [1]: 0.5 | binding result [2]: no binding (tested: 90 nM) | binding result [3]: no binding (tested: 90 nM) | MR (Molar Ratio) [4]: 1.4 | binding result (TtSlyD-Wildtype): no binding (tested: 90 nM) | binding result [5]: no binding | koff [6]: 0.0502 s⁻¹ | Kd [7]: 18 nM
B1: anti-HER3 antibody M-08-11 (antibody, V domains shown)
VH: QAYLQQSGAELMRPGASVRMSCQASGYTFTSYTIHWLKQTPRQGLEWIGAIYPRNGDFSYNQKFKDKASLTVDTSSSTAYMHLSSLTSEDSAVYFCARTINYGDWFAYWGQGTLVTVSA
VL: DIQMIQSPASLFVSEGETVIITCRASENIYSNLAWYHQKKGKSPQVLVYAAIKLADGVPLRFSGSGSGTQFSLKINSLQSEDFGSYYCQHFWGPPYTFGSGTNLEIK
notes: mouse monoclonal antibody from hybridoma, tested as hybridoma supernatant or as antibody; also called M-011
